Entries after “also recorded” stand apart in the source; their conditions may differ.
Key:
[1] = system: endogenous Bmx; experiment: Kinase activity of endogenous Bmx immunoprecipitated from stimulated HUVECs, with or without PI-3 kinase inhibitors; type: cell-based, human; conditions: HUVECs starved overnight; hVEGF and VEGF-B 60 ng/ml for 5 min, IL-3 200 ng/ml for 30 min
From the text: The polyclonal antibody (Ab) against human Bmx was produced against the Tec Homology (TH) domain by Dr. Toshio Suda (amino acids 151-169, NH2-[…]—COOH (SEQ. ID. NO.: 4)). The monoclonal anti-hemagglutinin (HA)-epitope Ab, phosphotyrosine Ab, and anti-CD31 Ab were from Berkeley Antibody Company (Richmond, Calif.), from Transduction Laboratories and from DAKO, respectively. GCSF growth factor was a kind gift from Dr. Riitta Alitalo, while VEGF was obtained from R&D Systems, Minneapolis, Minn. VEGF-B was produced in Drosophila cells by Terhi Karpanen. Mouse IL-3 was obtained from Calbiochem Novabiochem. Phosphatidyl inositol-3 kinase inhibitors Wortmannin and LY294002, were both from Sigma. For inhibition of PI3K activity, 100 nM for 30 min of Wortmannin and 100 μM of LY294002 for 30 min, were used.
Cell culture and transfections. 293T cells were grown in Dulbecco's Modified Eagle's Medium (DMEM), Human umbilical vein endothelial cells (HUVECs) were maintained in Hy-clone 199 medium. […]
(§1) In vitro substrate immunocomplex kinase assay was performed as follows. […] The filters were fixed and washed one time in 10% TCA 8% sodium pyrophosphate, 3 times in 5% TCA and 2 times in ethanol after which radioactivity was measured using Pharmacia Wallac 1410 Liquid Scintillation Counter. […] The gel was dried and Bmx autokinase activity was detected by exposure on film.

[2] = system: Bmx; experiment: In vitro substrate immunocomplex kinase assay of Bmx immunoprecipitated from stimulated BmxHA expressing 32Dcl3 cells; type: cell-based, mouse; conditions: BmxHA expressing 32Dcl3 pools, starved 14 hours in IL-3 and serum free media; IL-3 200 ng/ml for 30 min, hGCSF 100 ng/ml for 5 min; vs unstimulated
Protocol: Cell culture and transfections. 293T cells were grown in Dulbecco's Modified Eagle's Medium (DMEM), Human umbilical vein endothelial cells (HUVECs) were maintained in Hy-clone 199 medium. […] All media were supplemented with 10% fetal calf serum, glutamine and antibiotics, the Hy-clone 199 medium additionally with endothelial cell growth supplement-ECGS (Upstate Biotechnology). Where indicated, cells were stimulated with growth factors, hGCSF 100 ng/ml, hVEGF and VEGF-B 60 ng/ml, for 5 min or with mIL-3 or hIL-3, 200 ng/ml, for 30 min.
Transfections and generation of stable BmxHA and BmxHA K444R expressing pools (and clones). Transient co-transfections of293T cells were done using the Calcium Phosphate Transfection kit (GIBCO) according to manufacturer's instructions. The cells were transfected with Bmx-HA expression plasmid and the receptor plasmid or empty vector (PCI-Neo or pcDNAZ3.1) in the ration of 1:4. […]
as §1

VEGF was tested, and the “endogenous Bmx kinase activity after stimulation” value [1] was “increased endogenous Bmx activity; also recorded: activated”.

B1: GCSF: GCSF growth factor (granulocyte growth factor), gift from Dr. Riitta Alitalo (protein)
chain: TPLGPASSLPQSFLLKCLEQVRKIQGDGAALQEKLCATYKLCHPEELVLLGHSLGIPWAPLSSCPSQALQLAGCLSQLHSGLFLYQGLLQALEGISPELGPTLDTLQLDVADFATTIWQQMEELGMAPALQPTQGAMPAFASAFQRRAGGVLVASHLQSFLEVSYRVLRHLAQP
B1 was tested, and the “increase of Bmx kinase activity” value [2] was “around 1.7 fold”.

B2: VEGF-B: VEGF-B produced in Drosophila cells; ligand of Flt1 receptor (protein, UniProt P49765 22-207, looked up)
Vascular endothelial growth …: PVSQPDAPGHQRKVVSWIDVYTRATCQPREVVVPLTVELMGTVAKQLVPSCVTVQRCGGCCPDDGLECVPTGQHQVRMQILMIRYPSSQLGEMSLEEHSQCECRPKKKDSAVKPDRAATPHHRPQPRSVPGWDSAPGAPSPADITHPTPAPGPSAHAAPSTTSALTPGPAAAAADAAASSVAKGGA
B2 was tested, and the “endogenous Bmx kinase activity after stimulation” value [1] was “increased endogenous Bmx activity; also recorded: activated”.
